From the supplement of paper PMC12042874 come the findings set out here.

± gives the uncertainty stated by the source.

The data set is described as follows: amyloid nucleation score (Sup35N fusion, yeast selection) (log enrichment); library NNK3; higher = more nucleation; inactive = no reads after selection. The gist of the method: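 The nucleation score equals the log enrichment of output over input reads from DiMSum, centred on the mode score of non-aggregating sequences. It was computed only for sequences with 100 or more input reads. The reads came from Illumina sequencing of plasmid inserts from psi-negative yeast expressing Sup35N fused to peptides of 20 random codons, induced with 100 μM copper sulfate for 24 hours and grown 7 days at 30°C without adenine and uracil.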
On to DCLMDGDFRILGSFIHRFSE, for which the amyloid nucleation score entry was “inactive”.

Turning to DCLSVEFVLNTRVAYWCTCA, the amyloid nucleation score is -0.092 ± 0.52.

For the substance DCRWVCKFYPPVFNVIVEKV, the amyloid nucleation score result is “inactive”.

Consider DCVRVRVLKSGTYLLYRSEA, for which the amyloid nucleation score result was “inactive”.

DDASFIMERI: the amyloid nucleation score result was “inactive”.

Take DDCTTVF: the amyloid nucleation score entry is “inactive”.

Regarding DDLIGSIFKFLVLSRGKT, the amyloid nucleation score result was “inactive”.

For the substance DDLMASTMGSSMG, the amyloid nucleation score entry was “inactive”.

On to DDYYFG, for which the amyloid nucleation score entry is “inactive”.

Take DECMARLNDWEGYAKD: the amyloid nucleation score entry was “inactive”.

As for DEISSFER, the amyloid nucleation score entry was “inactive”.

For DELTNLPCY, the amyloid nucleation score was -0.405 ± 0.79.

As to DEMRKGRWHGDRLGRSDRQE, the amyloid nucleation score entry was “inactive”.

Consider DETVMFSFKFIVKSVVVDPR, for which the amyloid nucleation score result was “inactive”.

In turn, DFEVSMGQR returned an amyloid nucleation score of -0.015 ± 0.8.

Consider DFGHVIQSSWNSMNSAQSVA, for which the amyloid nucleation score result was “inactive”.

DFGVYNEHHGYLILGIKRDQ: the amyloid nucleation score entry is “inactive”.

Consider DFHVLRYVLFRWMWIIWRKG, for which the amyloid nucleation score result was “inactive”.

As to DFIRRVHYLKLSVWDVMTMR, the amyloid nucleation score result was “inactive”.

Consider DFLVVYNAMCDKELVDTGEI, for which the amyloid nucleation score result is “inactive”.

With DFRGDLFELMMIYGRGMVLT, the amyloid nucleation score entry was “inactive”.

In the case of DFSGVSLDVITRRCLGFIGA, the amyloid nucleation score result was “inactive”.

DFWRTIEGKMSLALI: the amyloid nucleation score result was “inactive”.

On to DFWRYDSS, for which the amyloid nucleation score result was “inactive”.

DFYGCGFTFTRSFFRQWFIG returned an amyloid nucleation score of 1.09 ± 0.11.

For DGDYL, the amyloid nucleation score result was “inactive”.

As for DGFYYSALLMFLV, the amyloid nucleation score result is “inactive”.

As for DGGRTSLLLTEKKVR, the amyloid nucleation score entry is “inactive”.

As to DGHGRRHSRVQIRGIVACSD, the amyloid nucleation score result was “inactive”.

On to DGLQSN, for which the amyloid nucleation score entry was “inactive”.

Consider DGMSMCRQLLKGVQKPDYLL, for which the amyloid nucleation score entry was “inactive”.

On to DGNGLNTRGNLTSGIFHRQY, for which the amyloid nucleation score result was “inactive”.

Turning to DGNLPPNWLKGACTFRWTFI, the amyloid nucleation score entry is “inactive”.

Turning to DGPHLPDHGGLM, the amyloid nucleation score entry was “inactive”.

Turning to DGQARISRYSTWLEEFLRCG, the amyloid nucleation score result was “inactive”.

For the substance DGRCKMLPVESGGAC, the amyloid nucleation score result is “inactive”.

On to DGRSIEFIDGCDVYSICSRE, for which the amyloid nucleation score result is “inactive”.

In the case of DHHLEEYRL, the amyloid nucleation score result was “inactive”.

On to DHYAWIFTDRLWYCRCNTVT, for which the amyloid nucleation score entry was “inactive”.

Take DIAKCNACGHENMFCRWMCV: the amyloid nucleation score result was “inactive”.

With DICLSYIFLL, the amyloid nucleation score came to 0.84 ± 0.17.

DILTMCEYDSDNNVGNLCYS: the amyloid nucleation score entry is “inactive”.

As to DINAVT, the amyloid nucleation score entry was “inactive”.

As to DINCSWTLQNGRGTLSE, the amyloid nucleation score result is “inactive”.

Consider DIQYWYTPVTKMTYSTNWFF, for which the amyloid nucleation score was found to be 1.26 ± 0.1.

Consider DISSLR, for which the amyloid nucleation score result is “inactive”.

As for DIYFTSESSVYIVHWFLFRH, the amyloid nucleation score entry was “inactive”.

On to DKIGDFNLYWHVKALLAYFY, for which the amyloid nucleation score entry was “inactive”.

Regarding DKNNLIFFLRAVCYFSSERT, the amyloid nucleation score is 1.08 ± 0.11.

DKSMIFVFI gave an amyloid nucleation score of 0.864 ± 0.22.

For the substance DKWSWSVCNIRLSKSCNPVT, the amyloid nucleation score result was “inactive”.

For DLDFFGGCLFFHQGTIFYDG, the amyloid nucleation score result was “inactive”.

Take DLDIRIFMVHDPAYCSLCSF: the amyloid nucleation score result is “inactive”.

In the case of DLHVLSVK, the amyloid nucleation score result is “inactive”.

For DLIQLDALWDVRTHWTWGTP, the amyloid nucleation score result was “inactive”.

On to DLNIVIPRIRAHRA, for which the amyloid nucleation score entry is “inactive”.

Regarding DLRGETNSYSGVCQERK, the amyloid nucleation score was determined as 0.104 ± 0.69.

As to DLSRTSAVSVRKRVCVFSLH, the amyloid nucleation score entry was “inactive”.

Take DLTMVQLMIFMLIIIFFNLL: the amyloid nucleation score result is “inactive”.

Consider DLVCTSLTRVAYRELIVWWF, for which the amyloid nucleation score result is “inactive”.

Consider DLVFWTINWSPGAHGTTSSG, for which the amyloid nucleation score entry is “inactive”.

As to DMVLLWQEFDCGKVACLSGG, the amyloid nucleation score entry is “inactive”.

With DMYPFPVCR, the amyloid nucleation score entry was “inactive”.

DNSFSPLASGLYQLKGVELI: the amyloid nucleation score entry is “inactive”.

As for DNSVNKYKKTNVSVISARVR, the amyloid nucleation score result was “inactive”.

As to DPTILSKVMLMEDTVKAREL, the amyloid nucleation score entry was “inactive”.

For the substance DQGLNC, the amyloid nucleation score result is “inactive”.

As for DQSNSSEGILCYNLCVLMTE, the amyloid nucleation score was 2.43 ± 0.072.

In the case of DRAFYYTLKYLRD, the amyloid nucleation score result was “inactive”.

Consider DRAMFYDALDNARVISKLRG, for which the amyloid nucleation score result was “inactive”.

As to DRDMVCMSEL, the amyloid nucleation score result was “inactive”.

The substance DRGSMSHILASVSTFNVYIS showed an amyloid nucleation score of 1.2 ± 0.1.

As to DRILAYKTYLGNYLLVVLYN, the amyloid nucleation score entry is “inactive”.

On to DRNSYVMCYPWGVVWCNHKS, for which the amyloid nucleation score worked out at 1.03 ± 0.14.

With DRRKAEFILTMGPEWYQQLN, the amyloid nucleation score entry is “inactive”.

Take DRTMLFVTCFNFRRSS: the amyloid nucleation score was 1.64 ± 0.078.

Take DRVGRRLIGLRLAQLLGERF: the amyloid nucleation score result is “inactive”.

Take DSASLGLNLP: the amyloid nucleation score entry is “inactive”.

On to DSDVWEPCFELEESKL, for which the amyloid nucleation score entry was “inactive”.

As to DSFNLSDSGWSTLYIRAWDG, the amyloid nucleation score entry is “inactive”.

DSFRHEGRVWLWYSSTTKRF: the amyloid nucleation score entry was “inactive”.

Turning to DSGSHNDCNGCSNY, the amyloid nucleation score result was “inactive”.

For DSGVSEQWGGGIELILSWCL, the amyloid nucleation score result is “inactive”.

Regarding DSICDTCYAVGCLPRVCWVV, the amyloid nucleation score result was “inactive”.

DSIVICQFIFDIKFLDKRKC displayed an amyloid nucleation score of 1.77 ± 0.085.

DSLKSKFSKVLGPLNRACFY: the amyloid nucleation score entry is “inactive”.

Turning to DSNLVFFGSIFFTVLMWLTK, the amyloid nucleation score entry is “inactive”.

On to DSNWRNMRGLHFY, for which the amyloid nucleation score result is “inactive”.

Turning to DTDWGRMWQGGSVYGYAFCA, the amyloid nucleation score result was “inactive”.

For DTLPHAVKLIEKM, the amyloid nucleation score result was “inactive”.

With DTMNLRWSVWRRHVWCLTGE, the amyloid nucleation score result was “inactive”.

Turning to DTREN, the amyloid nucleation score entry is “inactive”.

For the substance DVARPCSI, the amyloid nucleation score entry was “inactive”.

Regarding DVGAPCGRFRPHFTNTCLDV, the amyloid nucleation score entry was “inactive”.

Turning to DVGMGRHGKAMK, the amyloid nucleation score entry is “inactive”.

Consider DVGYSDMLVA, for which the amyloid nucleation score entry was “inactive”.

As for DVLGCPNMEVCWSGFLSQNY, the amyloid nucleation score result is “inactive”.

With DVTYECGRS, the amyloid nucleation score entry is “inactive”.

Consider DYALALVFAYCYEDNRMCCP, for which the amyloid nucleation score result was “inactive”.

Take DYITYVYYVSVRF: the amyloid nucleation score was -0.124 ± 0.82.

DYTSYILLS: the amyloid nucleation score entry was “inactive”.

In the case of DYYIAPRVPYHVTTWNKDYL, the amyloid nucleation score result is “inactive”.

For the substance ECLKVRW, the amyloid nucleation score entry was “inactive”.

ECSRNAVCF: the amyloid nucleation score result was “inactive”.

For EDNTKLRSWGELLGVCGKLS, the amyloid nucleation score result is “inactive”.

In the case of EERIT, the amyloid nucleation score entry is “inactive”.

Consider EFAEMHTAVLVERISSKVII, for which the amyloid nucleation score entry is “inactive”.

On to EFFSCYTEYPFRPAFLILTT, for which the amyloid nucleation score result is “inactive”.

On to EFFYINAMPVLYIDPYTSCF, for which the amyloid nucleation score entry was “inactive”.

Consider EFGLRWMS, for which the amyloid nucleation score was determined as 0.447 ± 0.34.

EFPRGLGSR: the amyloid nucleation score is -0.236 ± 1.

Take EFVVCTQCRVCDLIAFLGRN: the amyloid nucleation score came to 2.84 ± 0.065.

Substance EGFYTFALGRICGFWSYNFC yielded an amyloid nucleation score of 1.23 ± 0.14.

EGGMTTFYFC showed an amyloid nucleation score of 2.13 ± 0.093.

With EGRDQDNIPLMNTTGMCFGA, the amyloid nucleation score entry is “inactive”.

As to EGSYVYIKDYI, the amyloid nucleation score entry is “inactive”.

Regarding EGWIRVFTEFNFSS, the amyloid nucleation score came to 0.263 ± 0.46.

Regarding EHFRGRVLVRCLL, the amyloid nucleation score result is “inactive”.

Consider EHLRMCNLATIKLILLNVHP, for which the amyloid nucleation score result is “inactive”.

In the case of EIAVVRKVLYPYCRYVLICS, the amyloid nucleation score entry is “inactive”.

With EILRMCH, the amyloid nucleation score entry was “inactive”.

As to EIRRCTPCLLWVLLLFAINR, the amyloid nucleation score entry is “inactive”.

With EISTVLNLHVRRIAGRFVMK, the amyloid nucleation score entry is “inactive”.

On to EIVSWVDHFYWTWTGYHKCW, for which the amyloid nucleation score is -0.886 ± 1.

Take EKANLLIWDFKKDMLRTVGG: the amyloid nucleation score result was “inactive”.

On to EKLIIELLCTT, for which the amyloid nucleation score result was “inactive”.

As to EKSCCCSVKI, the amyloid nucleation score result was “inactive”.

With EKWQKDLSNKHVRNAVVAWS, the amyloid nucleation score entry was “inactive”.

As for ELEYAHVIRGKKRCHSSRVV, the amyloid nucleation score result was “inactive”.

For ELFDERQRLEPI, the amyloid nucleation score result is “inactive”.

As to ELGHSKSTMFNVYYVVWSRC, the amyloid nucleation score entry is “inactive”.

In the case of ELLGGLSLLGMSIFVLLSSL, the amyloid nucleation score entry was “inactive”.
